Patent publication US7803351B2, “Blood brain barrier permeation peptides” (priority 2004, dated 2010)
Where two headings read alike, the source gives them in different places. Numbered stars: 1 amine (or outer) side, 2 acyl side, 3 side chain; on linkers, the order of the positions; unused ones are H or OH. Square brackets hold non-standard residues; d marks the D form. Ends that are not written are not given here. * marks the point of attachment. Fluorescein(5-Mal) = O=C1OC2(c3ccc(O)cc3Oc3cc(O)ccc32)c2ccc(N3C(=O)CC(*)C3=O)cc21; εLys = N[C@@H](CCCCN[*:1])C(=O)[*:2]

Assays:
[1] = test system: amyloid plaques in brain sections; assay: Staining of brain tissue sections of APPsw+/− and WT mice; design: species or system mouse; settings: 40 μm sections
Chain of amyloid plaques in brain sections (P05067 672-711 limits assumed): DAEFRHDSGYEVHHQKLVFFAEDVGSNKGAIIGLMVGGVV
Text: Staining experiments with cross sections of brain tissue from normal (WT) and APPsw+/− mice are suitable for evaluating target specificity of the peptide conjugate. For example, a candidate peptide conjugate is labeled with a fluorescent marker. A suitable marker is fluorescein-5-maleimide (FM; 3-equiv) in DMF, which labels the C-terminal thiol of the peptide. After a suitable reaction of peptide and FM at room temperature in the dark, the fluorescent-labeled peptide is purified, for example column-purified, requisite fraction eluted, combined, lyophilized and characterized through electron spray mass spectrometry. For tissue staining of brain sections of APPsw+/− mice (test) and WT mice (control), immunohistochemical staining of Aβ and for FM-peptide staining are performed according to published procedures (DeMattos et al., 2002; Holtzman et al., 2000). Rabbit-anti-pan Aβ antibody is used, for example, as a control, and visualized with anti-rabbit antibody conjugated with a fluorescent marker such as Alexa 568 (Molecular Probes). Staining of brain sections from normal and APPsw+/− mice are compared. Target specificity of the peptide is indicated by immunostaining of Aβ in APPsw+/− mice and no staining in WT mice.
Staining experiments with cross sections of brain tissue were also performed. […]

[2] = target: T1, preformed Aβ 1-40 aggregates (Homo sapiens, UniProt P05067); assay: Competitive binding of ^99mTc-peptide to preformed Aβ 1-40 aggregates with unlabeled competitor; settings: 1,000-fold molar excess of competitor
T1 construct: preformed Aβ 1-40 aggregates; purchased
T1 sequence (P05067 672-711): as the sequence (P05067 672-711 limits assumed) above
Experimental: Binding assays are performed to determine the binding specificity of the peptide conjugate. For example, a preliminary radioassay of Aβ-binding is performed. For example, a conjugate consisting of radiolabeled ^99mTc-peptide conjugate is incubated with Aβ fibrils in PBS for about 1-3 hours. Bound ^99mTc-peptide conjugate is separated on a Centricon filter unit (with, for example a 100 KDa cut off) and washed several times with PBS buffer. Saturable binding is indicated by calculation of a Kd (affinity constant) as well known in the art to help evaluate the relative amount of specific binding as opposed to non-specific binding. […] Radiolabeled peptide conjugate that is displaceable to background with either 1,000-fold molar excess of unlabeled peptide conjugate or, for example, cold Re-peptide conjugate, supports receptor-like binding behavior of the peptide conjugate to Aβ fibrils. Binding of the lead ^99mTc-peptide to preformed Aβ 1-40 aggregates in presence of increasing equivalents of unlabeled competing peptide. The aggregate-bound ^99mTc-peptide was isolated from free labeled peptide by centrifugation using Centricon (100 kDa cutoff) filters. The concentration of aggregate bound ^99mTc-peptide was calculated on the basis of activity retained on the filters (FIG. 5). […] Each data point represents a mean of triplicate measurements.

[3] = Acute toxicity in mice after intravenous bolus injection; format: in vivo; settings: Balb/C male mice, intravenous bolus 14 mg/kg, up to several days post-injection
Experimental: Although absolute concentration of radiotracers in vivo is normally too low to cause any host toxicity, nevertheless host safety is a key determinant for any successful diagnostic agent. Therefore, using a Re-labeled peptide as a surrogate for a Tc-labeled peptide, acute toxicity in mice (Balb/C; male; 6-8wks old) was determined.

RBE4 cell monolayers [4] = test system: RBE4 cell monolayers
[5] = target: T2, Aβ 1-40 aggregates (Aβ fibrils) (Homo sapiens, UniProt P05067); assay: Binding assay of ^99mTc-peptide with Aβ fibrils (Centricon filter separation); settings: PBS, RT, 90 min, mean of triplicate; read-out: Kd (saturable binding to Aβ fibrils)
T2 construct: preformed Aβ 1-40 aggregates; purchased
T2 sequence (P05067 672-711): as the sequence (P05067 672-711 limits assumed) above
Experimental: Binding assays are performed to determine the binding specificity of the peptide conjugate. For example, a preliminary radioassay of Aβ-binding is performed. For example, a conjugate consisting of radiolabeled ^99mTc-peptide conjugate is incubated with Aβ fibrils in PBS for about 1-3 hours. Bound ^99mTc-peptide conjugate is separated on a Centricon filter unit (with, for example a 100 KDa cut off) and washed several times with PBS buffer. Saturable binding is indicated by calculation of a Kd (affinity constant) as well known in the art to help evaluate the relative amount of specific binding as opposed to non-specific binding. […]
Binding assays of ^99mTc-peptide with Aβ fibrils were performed in PBS. […] The concentration of aggregate-bound ^99mTc-peptide was calculated on the basis of activity retained on the filters. […]
Binding assays to preformed fibrils are performed using procedures as described in the literature (Klunk et al., 2001). […] The amount of activity incorporated in the fibrils is measured through γ-counting using previously published procedures (Zhen et al., 1999). […] The mixture is incubated at room temperature for 1.5 h, and the aggregate-bound ^99mTc-peptide and free radioactivity is separated by filtration through Centricon filtration units using a centrifuge. The aggregate-bound ^99mTc-peptide collected on filters is counted in a γ-counter. […]

RBE4 cell monolayers [6] = assay: Transwell transendothelial transport across RBE4 cell monolayers (in vitro BBB model); settings: apical to basolateral and basolateral to apical, up to 120 minutes

Aβ-binding peptide coupled with FM: peptide labeled on the C-terminal thiol with fluorescein-5-maleimide (FM) (KKLVFFAKGC(Fluorescein(5-Mal)); not fully specified (residues 7, 8); printed as KKLVFFAεKGC)
staining of Aβ plaques in brain sections of APPsw+/− mice ([1]; APPsw+/− mouse, 17 months old, FM-peptide 2 μM solution): staining of plaques in the cortical region | staining in brain sections of WT mice ([1]; control WT mouse (Bl/6; 13.5 months old)): no staining

Re-peptide: rhenium complex of peptide KKLVFFAεKGC, surrogate for the Tc-labeled peptide (KKLVFFA[εLys]GC; not fully specified (residue 7); printed as KKLVFFAεKGC; also: rhenium complex (peptide-based chelation core))
displacement of aggregate-bound ^99mTc-peptide by competitor [2]: displaceable to background conditions | acute toxicity [3]: nontoxic

^3H-Aβ1-40 peptide: full length tritiated Aβ1-40 peptide (SEQ. ID. NO.: 2)
transwell transport / permeation across RBE4 cells (RBE4 cell monolayers [4]): did not show any transwell transport

^99mTc-peptide: peptide KKLVFFAεKGC (SEQ. ID. NO.: 1) radiolabeled with technetium-99m in its peptide-based chelation core (KKLVFFAKGC; not fully specified; conjugate chemistry not built)
Kd [5]: 352 ± 82 nM

inulin [^14C-inulin]
transwell transport / permeation across RBE4 cells (RBE4 cell monolayers [6]): low transwell transport
